Experimental data: article PMC13499124

Legend:
Assay in all cases: MST; labelled JIP3/4 fragment (Blue-NHS dye) constant at 20 nM, KIF5B fragment titrated 120 pM to 4 uM (up to 38.2 uM when needed); 50 mM Tris pH 8.0, 200 mM NaCl, 10 mM MgCl2, 0.05% Tween 20; room temperature; Monolith NT.115, premium capillaries, MST-on 0.5-1.5 s; 1:1 Kd fit; three replicates; the paper calls its affinities relative measurements
[1] = target: JIP4-N-RH1-lz3-G40H-R41C (UniProt O60271)
[2] = target: JIP3-N^JIP4-RH1-lz3 chimera (JIP3 variant incorporating the N-terminus of JIP4) (not stated | mouse)
[3] = target: JIP4-N^JIP3-RH1-lz3 chimera (JIP4 variant incorporating the N-terminus of JIP3) (mouse | not stated)

Chain of KIF5B-CC3b-CC4-dt fragment (P33176 771-963): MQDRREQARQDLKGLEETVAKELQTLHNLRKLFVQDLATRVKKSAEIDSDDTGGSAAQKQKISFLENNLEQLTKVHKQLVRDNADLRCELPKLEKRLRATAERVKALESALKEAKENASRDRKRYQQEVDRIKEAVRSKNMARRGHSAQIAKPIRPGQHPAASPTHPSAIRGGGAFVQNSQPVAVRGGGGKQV
Chain of JIP4-N-RH1-lz3-G40H-R41C (O60271 whole entry G40H/R41C): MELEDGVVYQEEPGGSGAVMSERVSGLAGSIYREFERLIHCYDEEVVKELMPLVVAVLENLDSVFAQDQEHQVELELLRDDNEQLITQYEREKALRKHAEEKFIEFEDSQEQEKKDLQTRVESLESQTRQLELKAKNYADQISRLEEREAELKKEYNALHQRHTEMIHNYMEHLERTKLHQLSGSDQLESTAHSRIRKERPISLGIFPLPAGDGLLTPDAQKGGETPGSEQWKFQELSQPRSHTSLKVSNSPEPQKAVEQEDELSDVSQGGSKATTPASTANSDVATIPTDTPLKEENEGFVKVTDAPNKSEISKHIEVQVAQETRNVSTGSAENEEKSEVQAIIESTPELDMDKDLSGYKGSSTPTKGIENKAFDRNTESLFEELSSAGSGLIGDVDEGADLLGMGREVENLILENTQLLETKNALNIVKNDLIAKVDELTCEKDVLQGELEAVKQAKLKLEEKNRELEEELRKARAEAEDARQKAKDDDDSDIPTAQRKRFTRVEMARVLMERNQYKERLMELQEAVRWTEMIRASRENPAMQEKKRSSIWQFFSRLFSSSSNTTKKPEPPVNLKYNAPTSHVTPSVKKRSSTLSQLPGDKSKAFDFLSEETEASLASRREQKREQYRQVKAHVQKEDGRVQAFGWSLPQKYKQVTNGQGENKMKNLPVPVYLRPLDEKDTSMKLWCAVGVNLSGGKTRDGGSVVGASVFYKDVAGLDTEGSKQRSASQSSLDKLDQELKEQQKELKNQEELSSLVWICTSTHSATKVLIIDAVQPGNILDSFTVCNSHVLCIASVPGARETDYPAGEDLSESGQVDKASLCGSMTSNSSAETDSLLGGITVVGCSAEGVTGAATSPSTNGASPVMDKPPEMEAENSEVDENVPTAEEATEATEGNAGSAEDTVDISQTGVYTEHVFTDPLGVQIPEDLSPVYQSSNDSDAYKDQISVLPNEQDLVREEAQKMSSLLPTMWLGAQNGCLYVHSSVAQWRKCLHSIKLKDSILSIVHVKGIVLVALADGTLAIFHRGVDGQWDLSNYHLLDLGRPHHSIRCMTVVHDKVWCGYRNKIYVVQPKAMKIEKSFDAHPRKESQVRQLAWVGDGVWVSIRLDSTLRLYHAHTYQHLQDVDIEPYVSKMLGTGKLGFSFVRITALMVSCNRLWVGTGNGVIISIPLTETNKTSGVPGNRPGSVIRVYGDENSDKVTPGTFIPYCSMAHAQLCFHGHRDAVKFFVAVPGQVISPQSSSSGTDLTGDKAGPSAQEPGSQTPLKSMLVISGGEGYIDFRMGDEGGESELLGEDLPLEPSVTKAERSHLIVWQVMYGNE

**Q.** Which results are given for “KIF5B-CC3b-CC4-dt fragment (from UniProt P33176 771-963) (domain or fragment)”?
**A.** Kd [1]: 0.132 µM; Kd [2]: 0.0296 µM; Kd [3]: 0.246 µM
